Data reported in US20070004619A1, “Relaxin superfamily peptide analogues” (Howard Florey Institute of Experimental Physiology and …, priority 2003, published 2007).
Positions of bridges follow the written chain, without caps; N, C: chain ends. No end group written: not given here.

What was measured:
human LGR8 = molecular target: T1, human LGR8 (Homo sapiens, UniProt Q8WXD0); assay: Functional cAMP assay: inhibition of the INSL3 response at the native INSL3 receptor (LGR8); assay type: cell-based; conditions: FIG. 4; human 293T cells stably transfected with human LGR8; cAMP ELISA
T1 construct: expressed in transfected cells; host or cells: human 293T cells, stably transfected
T1 sequence (Q8WXD0 whole entry): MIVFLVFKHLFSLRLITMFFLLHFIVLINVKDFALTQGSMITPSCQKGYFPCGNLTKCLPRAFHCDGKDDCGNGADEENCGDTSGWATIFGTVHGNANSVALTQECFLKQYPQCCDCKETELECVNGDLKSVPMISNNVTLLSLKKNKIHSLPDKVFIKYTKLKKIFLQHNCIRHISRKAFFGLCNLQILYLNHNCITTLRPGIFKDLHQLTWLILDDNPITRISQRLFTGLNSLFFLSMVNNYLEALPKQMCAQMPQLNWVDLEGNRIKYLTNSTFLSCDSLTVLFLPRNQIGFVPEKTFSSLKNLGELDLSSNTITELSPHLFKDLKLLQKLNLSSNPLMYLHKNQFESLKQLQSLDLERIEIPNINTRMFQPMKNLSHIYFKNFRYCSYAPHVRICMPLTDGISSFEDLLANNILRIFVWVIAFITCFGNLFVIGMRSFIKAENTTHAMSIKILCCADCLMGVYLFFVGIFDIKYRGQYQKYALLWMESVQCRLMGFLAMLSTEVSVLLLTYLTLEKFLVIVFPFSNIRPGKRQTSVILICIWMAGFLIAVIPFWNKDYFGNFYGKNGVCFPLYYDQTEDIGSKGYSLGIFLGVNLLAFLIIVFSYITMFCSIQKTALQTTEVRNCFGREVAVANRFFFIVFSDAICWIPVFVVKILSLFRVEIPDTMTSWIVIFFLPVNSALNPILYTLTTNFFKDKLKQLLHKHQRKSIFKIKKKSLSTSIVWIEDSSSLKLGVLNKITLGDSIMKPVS
Method: Human 293T cells stably transfected with human LGR7, or LGR8 were preincubated in the presence of 0.25 mM 3-isobutyl-1-methyl xanthine (IBMX, Sigma) before various treatments for 30 minutes. At the end of the incubation cells were lysed for measurement of cAMP using a well-characterized cAMP ELISA (Satoko et al., J Biol Chem, 278:7855-7862). All experiments were repeated at least three times using cells from independent transfections, Results are plotted as pmol cAMP/10^4 cells.

[1] = Circular dichroism (CD) spectroscopy; assay type: physicochemical; conditions: FIG. 5; in water and phosphate buffered saline
Method: Circular Dichroism (CD) Spectroscopy:
CD spectra were taken on a Jasco J-720 instrument at room temperature in a 1 mm path-length cell, Doubly distilled water, 10 mM sodium phosphate buffer containing 120 mM NaCl pH 7.4, and spectroscopy grade trifluoroethanol (TFE) were used as solvents. The peptide concentrations were made to 1 μM, determined by quantitative RP-HPLC and amino acid analysis (ref). Curves were smoothed by the algorithm provided by Jasco, Mean residue ellipticity ([θ]MR) is expressed in degrees×cm2/dmole by using the molecular mass. CD spectra evaluations were based on comparison with known peptide conformations (Otvos, L., Jr. 1996. from Neuropeptide protocols. Irvine, G. & Williams, C., Eds. pp 153-161. Humana Press, Totowa, N.J.).

inhibition of the response of INSL3 (measured by cAMP response) to the native INSL3 receptor (LGR8) (human LGR8): antagonistic activity
Substance: cINSLa: cyclic INSL3 B-chain mimetic; Glu4 and Arg26 replaced with cysteine and a disulphide bond formed (PTPCMREKLCGHHFVRALVRVCGGPCWSTEA; disulfide 4-26; cysteine pairing not given here)
alpha-helical content from CD spectra [1]: significant alpha-helical content
